Results as given in patent publication US20220119469.

What was measured:
[1] = target: endogenous MyBP-C of homozygous soleus tissue (with TEV site and SpyTag), uncut
[2] = target: T1, Spy-C cMyBP-C (cMyBP-C of Spy-C mice with a TEV protease recognition site and a SpyTag sequence in the linker between domains C7 and C8), uncut
T1 chain: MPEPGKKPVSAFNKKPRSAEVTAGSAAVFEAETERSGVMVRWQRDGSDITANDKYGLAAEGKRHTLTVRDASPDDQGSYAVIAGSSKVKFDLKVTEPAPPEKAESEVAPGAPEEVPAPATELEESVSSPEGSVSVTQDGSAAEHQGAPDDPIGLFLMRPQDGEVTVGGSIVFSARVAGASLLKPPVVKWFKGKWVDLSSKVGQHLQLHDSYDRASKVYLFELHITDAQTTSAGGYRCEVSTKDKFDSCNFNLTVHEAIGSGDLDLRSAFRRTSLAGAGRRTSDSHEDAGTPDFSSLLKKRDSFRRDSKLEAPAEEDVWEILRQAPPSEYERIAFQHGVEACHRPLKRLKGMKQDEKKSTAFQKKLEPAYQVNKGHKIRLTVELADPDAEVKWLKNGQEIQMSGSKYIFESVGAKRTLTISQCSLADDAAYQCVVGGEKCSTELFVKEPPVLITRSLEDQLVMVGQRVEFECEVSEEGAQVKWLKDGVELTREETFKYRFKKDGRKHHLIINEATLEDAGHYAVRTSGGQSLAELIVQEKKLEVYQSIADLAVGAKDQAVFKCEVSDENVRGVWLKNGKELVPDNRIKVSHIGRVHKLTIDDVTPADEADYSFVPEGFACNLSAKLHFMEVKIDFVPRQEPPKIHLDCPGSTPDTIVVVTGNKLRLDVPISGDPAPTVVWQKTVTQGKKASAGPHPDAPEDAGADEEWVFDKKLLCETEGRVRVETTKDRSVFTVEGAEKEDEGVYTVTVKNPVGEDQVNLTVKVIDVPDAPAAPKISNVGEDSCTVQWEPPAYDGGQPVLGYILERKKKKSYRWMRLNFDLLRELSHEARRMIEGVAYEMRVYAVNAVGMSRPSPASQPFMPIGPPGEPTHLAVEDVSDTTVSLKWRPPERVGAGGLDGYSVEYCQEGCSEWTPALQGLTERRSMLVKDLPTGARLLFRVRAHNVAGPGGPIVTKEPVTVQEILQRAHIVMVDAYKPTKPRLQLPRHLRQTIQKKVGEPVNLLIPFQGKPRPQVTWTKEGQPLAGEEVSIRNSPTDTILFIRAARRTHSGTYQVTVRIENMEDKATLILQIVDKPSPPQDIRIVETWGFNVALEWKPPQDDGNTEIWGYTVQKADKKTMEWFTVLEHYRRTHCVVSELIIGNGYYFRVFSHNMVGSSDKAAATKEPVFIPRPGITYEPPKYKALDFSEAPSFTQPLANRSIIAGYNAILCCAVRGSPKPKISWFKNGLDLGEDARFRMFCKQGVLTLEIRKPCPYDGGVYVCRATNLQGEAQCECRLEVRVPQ

[3] = target: endogenous MyBP-C in wild type soleus tissue

B1: TEV protease (protein)
chain: GESLFKGPRDYNPISSTICHLTNESDGHTTSLYGIGFGPFIITNKHLFRRNNGTLLVQSLHGVFKVKNTTTLQQHLIDGRDMIIIRMPKDFPPFPQKLKFREPQREERICLVTTNFQTKSMSSMVSDTSCTFPSSDGIFWKHWIQTKDGQCGSPLVSTRDGFIVGIHSASNFTNTNNYFTSVPKNFMELLTNQEAQQWVSGWRLNADSVLWGGHKVFMSKPEEPFQPVKEATQLMN
decrease in molecular weight on western blot [1]: endogenous MyBP-C domains C1-C7 in homozygous tissue are cleaved with TEV protease (TEVp), shown by a decrease in molecular weight | cleavage in permeabilized myocytes [2]: Spy-C cMyBP-C was cleaved at the TEV site | size on western blot [3]: the size of endogenous MyBP-C in wild type tissue is unaffected by TEVp, washing and addition of replacement protein
